Assay results as given in patent publication US20070071744A1 (published 2007).

Molecular target: T1, human glycoprotein VI (GPVI), native, on human platelets (human, UniProt Q9HCN6 21-339)
T1 sequence (looked up): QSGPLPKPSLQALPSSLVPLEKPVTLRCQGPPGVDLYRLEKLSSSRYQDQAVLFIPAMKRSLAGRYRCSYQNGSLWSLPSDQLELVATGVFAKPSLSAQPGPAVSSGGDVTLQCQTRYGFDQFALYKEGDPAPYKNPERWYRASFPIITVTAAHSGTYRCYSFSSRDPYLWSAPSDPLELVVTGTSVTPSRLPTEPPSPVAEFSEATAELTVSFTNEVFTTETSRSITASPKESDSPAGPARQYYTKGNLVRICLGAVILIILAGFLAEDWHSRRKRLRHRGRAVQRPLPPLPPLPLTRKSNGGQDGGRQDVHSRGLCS
Assay: cell-based or functional assay

IC50 of inhibition of collagen-induced (3 µg/ml) human platelet aggregation ex vivo: 0.12 µg/mL
B1: hGP 5C4 Fab (Fab, V domains shown)
VH: EVKLQESGGGLVQPGRSLKLSCTASGFTFSDYFMSWVRQAPTRGLEWVASISSGGASAYWRDSVKGRFTISRDNAKSALYLQMDSLRSEDTATYFCARGELDFDYWGQGVMVAVSS
VL: ADPNSTLLSASVGDRVTLNCTASQNVYKNLAWYQQKLGEAPRLLLYSANSQTGIPSRFSGSGSGPDFTLTISSLQPEDVASYFCQQYYSGNTFGAGTKLELKR
